Reference: patent US6844486 (TEMASEK LIFE SCIENCES LABORATORY, dated 2005)

Target: T1, GAL4 DNA binding domain-NAC1 fusion, first 199 amino acids of NAC1 (plasmid pGBNAC1 1-199) (Arabidopsis thaliana)
T1 construct: Yeast two-hybrid bait used as the fixed partner for testing the deletions; also called pGBNACl1-199; 199 amino acid version
Test: yeast two-hybrid in HF7c, HIS3 reporter
From the text: Two-hybrid analysis (Bartel et al., 1993; Fields and Song, 1989; Chevray and Nathans, 1992; Lee et al., 1995) was applied to dimerization analysis. The yeast strain HF7c (MATa ura3–52 his3–200 ade2–101 lys2–801 trp1–901 leu2–3,112 gal4–542 gal 80–538 LYS2::GAL1$UAS$-GAL1$TATA$-HIS3 URA3::GAL4_{17mers(x3)}-CyC1$TATA$-LacZ which contains the two reporter genes LacZ and HIS3 was used. Yeast cotransformation with plasmids carrying the different Gal4 DNA binding domain and the Gal4 activation domain fusion was performed by methods known to those of skill in the art. See, e.g., Burke and Olson, 1986; Rudolph et al., 1985; Sakai et al., 1984. Other conditions have been described in detail elsewhere and are well known to those of skill in the art. To corroborate the interaction between the two fusion proteins, â-galactosidase activity was assayed by a replica filter assay.

Row | binding result | Binder
1 | no binding | GAL4 activation domain-NAC1 fusion, NAC1 amino acids 143 to the C-terminus (plasmid pGANAC1 143-324) (other, not shown: large carriers; small tags and cut ends, Yeast two-hybrid prey) FRLQGSHHPPNHSLSSPKEDWVLCRVFHKNTEGVICRDNMGSCFDETASASLPPLMDPYINFDQEPSSYLSDDHHYIINEHVPCFSNLSQNQTLNSNLTNSVSELKIPCKNPNPLFTGGSASATLTGLDSFCSSDQMVLRALLSQLTKIDGSLGPKESQSYGEGSSESLLTDIGIPSTVWNC
2 | no binding | GAL4 activation domain-NAC1 fusion, first 142 amino acids of NAC1 (plasmid pGANAC1 1-142) (other, not shown: large carriers, Yeast two-hybrid prey) METEEEMKESSISMVEAKLPPGFRFHPKDDELVCDYLMRRSLHNNHRPPLVLIQVDLNKCEPWDIPKMACVGGKDWYFYSQRDRKYATGLRTNRATATGYWKATGKDRTILRKGKLVGMRKTLVFYQGRAPRGRKTDWVMHE
